# T1: CsiR (Pseudomonas putida, UniProt Q88IU1)
# T1 construct: full-length, His6-tagged, purified from E. coli BL21(DE3) (pETDuet-CsiR); dimer
# T1 sequence (Q88IU1 1-231): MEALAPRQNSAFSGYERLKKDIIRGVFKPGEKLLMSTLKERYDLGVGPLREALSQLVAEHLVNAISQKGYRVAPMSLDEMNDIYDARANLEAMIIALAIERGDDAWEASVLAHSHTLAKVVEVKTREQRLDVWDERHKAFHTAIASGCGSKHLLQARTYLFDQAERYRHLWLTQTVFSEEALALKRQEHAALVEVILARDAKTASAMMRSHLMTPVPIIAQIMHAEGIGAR
# T2: YnfM (Escherichia coli, UniProt P43531)
# T2 construct: native MFS exporter in living E. coli BL21(DE3) cells; ynfM knockout comparison with Glusor read-out
# T2 sequence (P43531 1-417): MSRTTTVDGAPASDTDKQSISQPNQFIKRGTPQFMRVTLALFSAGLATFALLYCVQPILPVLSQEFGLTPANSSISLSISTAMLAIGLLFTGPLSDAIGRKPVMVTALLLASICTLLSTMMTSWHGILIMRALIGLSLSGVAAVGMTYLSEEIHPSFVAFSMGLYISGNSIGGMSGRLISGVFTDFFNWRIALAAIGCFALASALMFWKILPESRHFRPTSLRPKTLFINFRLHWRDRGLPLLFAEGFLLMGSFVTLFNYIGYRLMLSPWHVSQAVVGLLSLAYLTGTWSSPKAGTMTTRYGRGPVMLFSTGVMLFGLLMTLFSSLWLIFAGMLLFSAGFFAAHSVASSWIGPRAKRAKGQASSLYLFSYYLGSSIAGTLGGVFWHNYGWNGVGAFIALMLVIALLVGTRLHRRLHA
# Key:
# [1] = target: T1, CsiR; test: fluorescence-based thermal shift (SYPRO Orange); assay type: binding; settings: 100 µM ligand; 20 mM sodium phosphate, 150 mM NaCl, pH 7.4
# [2] = target: T2, YnfM; test: efflux in knockout versus parent E. coli, intra- and extracellular Glusor fluorescence; assay type: cell-based; settings: carbon starvation, 30 °C
# [3] = target: ligand-binding domain of CsiR (CsiR-LBD) (P. putida KT2440); test: SEC; gel filtration on Superdex 200 10/300 GL, 50 mM sodium phosphate buffer pH 7.2, 150 mM NaCl; mass standards aprotinin, ovalbumin, conalbumin, aldolase, ferritin
# [4] = target: the molecule itself; test: as above
molecule,measurement,setting,value
O=C(O)CCCC(=O)O [glutarate],ΔTm,[1],only glutarate induced a significant increase in the melting temperature (Tm) of CsiR
same,"efflux in knockout versus parent E. coli, intra- and extracellular Glusor fluore",[2],YnfM may be the only functional glutarate exporter in E. coli BL21(DE3)
ligand-binding domain of CsiR (CsiR-LBD) (domain or fragment),stoichiometry N,[3],2
"GntR family transcriptional regulator CsiR (natural protein, P. putida KT2440, UniProt Q88IU1 1-231, looked up, CsiR, GntR family transcriptional regulator of the csiD-lhgO operon, Pseudomonas putida KT2440; csiR gene cloned into pETDuet-1 (pETDuet-CsiR); also called His6-tagged CsiR) MEALAPRQNSAFSGYERLKKDIIRGVFKPGEKLLMSTLKERYDLGVGPLREALSQLVAEHLVNAISQKGYRVAPMSLDEMNDIYDARANLEAMIIALAIERGDDAWEASVLAHSHTLAKVVEVKTREQRLDVWDERHKAFHTAIASGCGSKHLLQARTYLFDQAERYRHLWLTQTVFSEEALALKRQEHAALVEVILARDAKTASAMMRSHLMTPVPIIAQIMHAEGIGAR",stoichiometry N,[4],2
genetically encoded glutarate fluorescent biosensor Glusor (other) LDEMNDIYDARANLEAMIIALAIERGDDAWEASVLAHSHTLAKVVEVKTREQRLDVWDERHKAFHTAIASGCGSKHLLQARTYLFDQAERYRHLWLTQTVFSEEALALKRQEHAALVEVILARDAKTASAMMRSHLMTPVPIIAQIMHAEGIGAR,stoichiometry N,[4],2

# — article PMC12622518 (Advanced Science, 2025)
